In publication doi:10.1101/396861:

Biological target: T1, AtHYL1-FL (HYL1/DRB1 full length) (Arabidopsis thaliana, UniProt O04492 1-419)
T1 sequence: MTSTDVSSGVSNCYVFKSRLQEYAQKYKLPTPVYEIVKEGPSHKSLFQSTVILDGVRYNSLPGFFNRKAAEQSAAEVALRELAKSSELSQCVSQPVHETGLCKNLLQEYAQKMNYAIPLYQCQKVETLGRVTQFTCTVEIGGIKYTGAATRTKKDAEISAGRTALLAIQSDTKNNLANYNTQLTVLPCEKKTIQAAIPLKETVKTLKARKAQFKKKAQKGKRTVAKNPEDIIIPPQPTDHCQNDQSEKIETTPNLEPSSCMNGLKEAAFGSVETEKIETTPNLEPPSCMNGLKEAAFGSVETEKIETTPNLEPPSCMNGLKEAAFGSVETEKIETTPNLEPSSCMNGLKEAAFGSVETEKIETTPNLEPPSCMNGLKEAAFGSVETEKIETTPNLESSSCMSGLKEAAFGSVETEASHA
Experiment: EMSA

GCCCTGCAACCGAGACCACGCTTATGGAGCCTGGGACGTGGTCTCGGTTG (structured_DNA) [50-nt DNA hairpin (dsDNA hairpin loop)]: binds.
